Results as given in article PMC3048824 (Journal of molecular biology, 2009).
Values joined by “and” are separate entries in the source; they are usually repeats but may differ in a detail not shown here. Equal values may be shown once.

What was measured:
[1] = biological target: the molecule itself; assay: GdmCl-induced equilibrium unfolding-refolding monitored by CD
[2] = biological target: the molecule itself; assay: AUC

Row | Protein | Keq ([U]^3/[N], native trimer to unfolded monomers, in water) [1] | stoichiometry N [2]
1 | NC1(54) peptide of human collagen XVIII (domain or fragment) GSSGVRLWATRQAMLGQVHEVPEGWLIFVAEQEELYVRVQNGFRKVQLEARTPLPR | 2.4e-21 mol^2 | 
2 | full-length NC1 domain of murine collagen XVIII (domain or fragment) AGQVRIWATYQTMLDKIREVPEGWLIFVAEREELYVRVRNGFRKVLLEARTALPRGTGNEVAALQPPLVQLHEGSPYTRREYSYSTARPWRADDILANPPRLPDRQPYPGVPHHHSSYVHLPPARPTLSLAHTHQDFQPVLHLVALNTPLSGGMRGIRGADFQCFQQARAVGLSGTFRAFLSSRLQDLYSIVRRADRGSVPIVNLKDEVLSPSWDSLFSGSQGQLQPGARIFSFDGRDVLRHPAWPQKSVWHGSDPSGRRLMESYCETWRTETTGATGQASSLLSGRLLEQKAASCHNSYIVLCIENSFMTSFSK |  | 2.56
3 | full-length NC1 domain of murine collagen XV (domain or fragment) NLVTALSDMGDMLQKAHLVIEGTFIYLRDSGEFFIRVRDGWKKLQLGELIPIPADSPPPPALSSNPYQPQPPLNPILSANYERPVLHLVALNTPVAGDIRADFQCFQQARAAGLLSTFRAFLSSHLQDLSTVVRKAERFGLPIVNLKGQVLFNNWDSIFSGDGGQFNTHIPIYSFDGRDVMTDPSWPQKVVWHGSNPHGVRLVDKYCEAWRTTDMAVTGFASPLSTGKILDQKAYSCANRLIVLCIENSFMTDTRK |  | 3.11 and 3.6
